# B1: EEHEE_rd3_0130 (parent)
# chain: TKIIVNGKTFTAPTEEEAQKIAEKLAKKAGLTVHKKNGTFELK
# Variants of: B1
# Test: folding stability dG (cDNA display proteolysis); higher = more stable
# Details: PBS, room temperature
row,Variant,folding stability dG [kcal/mol]
1,TKIIVNGKTFTAPTEEEAQKIAEKLAKAAGLTVHKKNGTFELK [K28A],1.09
2,TKIIVNGKTFTAPTEEEAQKIAEKLAKKAGLTVCKKNGTFELK [H34C],1.31
3,TKIIVNGKTFTAPTEEEAQKIAEKLAKKAGLTVAKKNGTFELK [H34A],0.451
4,TKIIVNGKTFTAPTEEEAQKIAEKLAKKAGLTLHKKNGTFELK [V33L],0.891
5,TKIIVNGKTFTAPTEEEAQKIAEKLAKKAGLTNHKKNGTFELK [V33N],-0.582
6,TKIIVNGKTFTAPTEEEAQKIAEKLAKKAGLTSHKKNGTFELK [V33S],-0.023
7,TKIIVNGKTFTAPTEEEAQKIAEKLAKKAGLTYHKKNGTFELK [V33Y],0.251
8,TKIIVNGKTFTAPTEEEAQKIAEKLAKKAGLTEHKKNGTFELK [V33E],-0.529
9,TKIIVNGKTFTAPTEEEAQKIAEKLAKKAGLTDHKKNGTFELK [V33D],-0.376
10,TKIIVNGKTFTAPTEEEAQKIAEKLAKKAGLTHHKKNGTFELK [V33H],-0.447
11,TKIIVNGKTFTAPTEEEAQKIAEKLAKKAGLTIHKKNGTFELK [V33I],1.13
12,TKIIVNGKTFTAPTEEEAQKIAEKLAKKAGLTKHKKNGTFELK [V33K],-0.149
13,TKIIVNGKTFTAPTEEEAQKIAEKLAKKAGLTRHKKNGTFELK [V33R],-0.007
14,TKIIVNGKTFTAPTEEEAQKIAEKLAKKAGLTQHKKNGTFELK [V33Q],-0.574
15,TKIIVNGKTFTAPTEEEAQKIAEKLAKKAGLTAHKKNGTFELK [V33A],0.036
16,TKIIVNGKTFTAPTEEEAQKIAEKLAKKAGLTGHKKNGTFELK [V33G],-0.128
17,TKIIVNGKTFTAPTEEEAQKIAEKLAKKAGLTTHKKNGTFELK [V33T],0.223
18,TKIIVNGKTFTAPTEEEAQKIAEKLAKKAGLTWHKKNGTFELK [V33W],0.592
19,TKIIVNGKTFTAPTEEEAQKIAEKLAKKAGLTFHKKNGTFELK [V33F],0.358
20,TKIIVNGKTFTAPTEEEAQKIAEKLAKKAGLTCHKKNGTFELK [V33C],1.13

row,Variant,folding stability dG [kcal/mol]
1,TKIIVNGKTFTAPTEEEAQKIAEKLAKKAGLTMHKKNGTFELK [V33M],0.559
2,TKIIVNGKTFTAPTEEEAQKIAEKLAKKAGLKVHKKNGTFELK [T32K],0.69
3,TKIIVNGKTFTAPTEEEAQKIAEKLAKKAGLVVHKKNGTFELK [T32V],1.02
4,TKIIVNGKTFTAPTEEEAQKIAEKLAKKAGLEVHKKNGTFELK [T32E],0.222
5,TKIIVNGKTFTAPTEEEAQKIAEKLAKKAGLHVHKKNGTFELK [T32H],0.159
6,TKIIVNGKTFTAPTEEEAQKIAEKLAKKAGLMVHKKNGTFELK [T32M],0.321
7,TKIIVNGKTFTAPTEEEAQKIAEKLAKKAGLSVHKKNGTFELK [T32S],0.621
8,TKIIVNGKTFTAPTEEEAQKIAEKLAKKAGLYVHKKNGTFELK [T32Y],0.023
9,TKIIVNGKTFTAPTEEEAQKIAEKLAKKAGLIVHKKNGTFELK [T32I],0.92
10,TKIIVNGKTFTAPTEEEAQKIAEKLAKKAGLCVHKKNGTFELK [T32C],1.05
11,TKIIVNGKTFTAPTEEEAQKIAEKLAKKAGLNVHKKNGTFELK [T32N],0.28
12,TKIIVNGKTFTAPTEEEAQKIAEKLAKKAGLQVHKKNGTFELK [T32Q],0.523
13,TKIIVNGKTFTAPTEEEAQKIAEKLAKKAGLAVHKKNGTFELK [T32A],0.577
14,TKIIVNGKTFTAPTEEEAQKIAEKLAKKAGLGVHKKNGTFELK [T32G],-0.284
15,TKIIVNGKTFTAPTEEEAQKIAEKLAKKAGLLVHKKNGTFELK [T32L],0.291
16,TKIIVNGKTFTAPTEEEAQKIAEKLAKKAGLPVHKKNGTFELK [T32P],-0.446
17,TKIIVNGKTFTAPTEEEAQKIAEKLAKKAGLFVHKKNGTFELK [T32F],0.022
18,TKIIVNGKTFTAPTEEEAQKIAEKLAKKAGLDVHKKNGTFELK [T32D],-0.061
19,TKIIVNGKTFTAPTEEEAQKIAEKLAKKAGLRVHKKNGTFELK [T32R],0.561
20,TKIIVNGKTFTAPTEEEAQKIAEKLAKKAGLWVHKKNGTFELK [T32W],-0.409

row,Variant,folding stability dG [kcal/mol]
1,TKIIVNGKTFTAPTEEEAQKIAEKLAKKALLTVHKKNGTFELK [G30L],-0.179
2,TKIIVNGKTFTAPTEEEAQKIAEKLAKKAPLTVHKKNGTFELK [G30P],-0.624
3,TKIIVNGKTFTAPTEEEAQKIAEKLAKKAFLTVHKKNGTFELK [G30F],-0.093
4,TKIIVNGKTFTAPTEEEAQKIAEKLAKKADLTVHKKNGTFELK [G30D],0.07
5,TKIIVNGKTFTAPTEEEAQKIAEKLAKKANLTVHKKNGTFELK [G30N],0.349
6,TKIIVNGKTFTAPTEEEAQKIAEKLAKKAALTVHKKNGTFELK [G30A],-0.039
7,TKIIVNGKTFTAPTEEEAQKIAEKLAKKARLTVHKKNGTFELK [G30R],0.057
8,TKIIVNGKTFTAPTEEEAQKIAEKLAKKAHLTVHKKNGTFELK [G30H],0.531
9,TKIIVNGKTFTAPTEEEAQKIAEKLAKKAYLTVHKKNGTFELK [G30Y],-0.036
10,TKIIVNGKTFTAPTEEEAQKIAEKLAKKAWLTVHKKNGTFELK [G30W],-0.249
11,TKIIVNGKTFTAPTEEEAQKIAEKLAKKAMLTVHKKNGTFELK [G30M],0.018
12,TKIIVNGKTFTAPTEEEAQKIAEKLAKKAKLTVHKKNGTFELK [G30K],0.272
13,TKIIVNGKTFTAPTEEEAQKIAEKLAKKAVLTVHKKNGTFELK [G30V],-0.549
14,TKIIVNGKTFTAPTEEEAQKIAEKLAKKATLTVHKKNGTFELK [G30T],0.204
15,TKIIVNGKTFTAPTEEEAQKIAEKLAKKAILTVHKKNGTFELK [G30I],-0.078
16,TKIIVNGKTFTAPTEEEAQKIAEKLAKKACLTVHKKNGTFELK [G30C],0.98
17,TKIIVNGKTFTAPTEEEAQKIAEKLAKKAQLTVHKKNGTFELK [G30Q],0.163
18,TKIIVNGKTFTAPTEEEAQKIAEKLAKKAELTVHKKNGTFELK [G30E],-0.258
19,TKIIVNGKTFTAPTEEEAQKIAEKLAKKASLTVHKKNGTFELK [G30S],0.137

# Reference: the MegaScale stability set (Tsuboyama et al. 2023)
